Molecular target: the molecule itself
Assay: AUC

B1: recombinant full-length Plasmodium vivax Sub1 (PvS1FL) (complex)
chain 1: GDILPNEGKKEKDDVHKIISELRFLQKVETILESSNMSVSDVEADANAYNPDRDAPKEELQKLQDQQETPSKQPNNLRNSPQKRAEKKESPGKNKKSLRLIVSENHATSPSFFEESLLQEDVVSFIQSKGKLSNLKNLKSMIIDLNSDMTDEELAEYISLLERKGALIESDKLVGAD
chain 2: DVSLASVKDAVRRGESSVNWGKLRSTMLEVPSGESPPSHAASSGSPFDDDDDLLSEAALHREEAHLAGSKTTKGYKFNDEYRNLQWGLDLARLDETQDLINANRVSVTKICVIDSGIDYNHPDLRNNIDVNVKELHGRKGVDDDSNGVVDDVYGANFVNNSGDPMDDNYHGTHVSGIISAVGNNGIGIVGVDGHSKLVICKALDQHKLGRLGDMFKCIDYCISRQAHMINGSFSFDEYSNIFNASVEHLRSLGILFFVSASNCAHDKLSKPDIAKCDLAVNHRYPPILSKTHNNVIAVANLKRDLDESYSLSVNSFYSNIYCQLAAPGTNIYSTTPMNNYRKLNGTSMASPHVAAIASIVRSINPNLTYLQIVEILRNAIVKLPSLTERVSWGGYVDILRAVNLAIDSKAAPYIKSHSWFRWKQGSRR
  stoichiometry N: 2

— doi:10.1101/2023.07.31.551325 (bioRxiv, 2023)
